B1: Protein C-ets-1 (Homo sapiens), P14921-1 (parent)
chain: MKAAVDLKPTLTIIKTEKVDLELFPSPDMECADVPLLTPSSKEMMSQALKATFSGFTKEQQRLGIPKDPRQWTETHVRDWVMWAVNEFSLKGVDFQKFCMNGAALCALGKDCFLELAPDFVGDILWEHLEILQKEDVKPYQVNGVNPAYPESRYTSDYFISYGIEHAQCVPPSEFSEPSFITESYQTLHPISSEELLSLKYENDYPSVILRDPLQTDTLQNDYFAIKQEVVTPDNMCMGRTSRGKLGGQDSFESIESYDSCDRLTQSWSSQSSFNSLQRVPSYDSFDSEDYPAALPNHKPKGTFKDYVRDRADLNKDKPVIPAAALAGYTGSGPIQLWQFLLELLTDKSCQSFISWTGDGWEFKLSDPDEVARRWGKRKNKPKMNYEKLSRGLRYYYDKNIIHKTAGKRYVYRFVCDLQSLLGYTPEELHAMLDVKPDADE
B2: Protein C-ets-2 (Homo sapiens), P15036 (parent)
chain: MNDFGIKNMDQVAPVANSYRGTLKRQPAFDTFDGSLFAVFPSLNEEQTLQEVPTGLDSISHDSANCELPLLTPCSKAVMSQALKATFSGFKKEQRRLGIPKNPWLWSEQQVCQWLLWATNEFSLVNVNLQRFGMNGQMLCNLGKERFLELAPDFVGDILWEHLEQMIKENQEKTEDQYEENSHLTSVPHWINSNTLGFGTEQAPYGMQTQNYPKGGLLDSMCPASTPSVLSSEQEFQMFPKSRLSSVSVTYCSVSQDFPGSNLNLLTNNSGTPKDHDSPENGADSFESSDSLLQSWNSQSSLLDVQRVPSFESFEDDCSQSLCLNKPTMSFKDYIQERSDPVEQGKPVIPAAVLAGFTGSGPIQLWQFLLELLSDKSCQSFISWTGDGWEFKLADPDEVARRWGKRKNKPKMNYEKLSRGLRYYYDKNIIHKTSGKRYVYRFVCDLQNLLGFTPEELHAILGVQPDTED

Here are results for 7 variants from IntAct's records for PubMed 25117710.

Variants of B1 are the subject of the first test. Particulars: with cop1_human COP1, Q8NHY2.
Target sequence in this assay (Q8NHY2 whole entry): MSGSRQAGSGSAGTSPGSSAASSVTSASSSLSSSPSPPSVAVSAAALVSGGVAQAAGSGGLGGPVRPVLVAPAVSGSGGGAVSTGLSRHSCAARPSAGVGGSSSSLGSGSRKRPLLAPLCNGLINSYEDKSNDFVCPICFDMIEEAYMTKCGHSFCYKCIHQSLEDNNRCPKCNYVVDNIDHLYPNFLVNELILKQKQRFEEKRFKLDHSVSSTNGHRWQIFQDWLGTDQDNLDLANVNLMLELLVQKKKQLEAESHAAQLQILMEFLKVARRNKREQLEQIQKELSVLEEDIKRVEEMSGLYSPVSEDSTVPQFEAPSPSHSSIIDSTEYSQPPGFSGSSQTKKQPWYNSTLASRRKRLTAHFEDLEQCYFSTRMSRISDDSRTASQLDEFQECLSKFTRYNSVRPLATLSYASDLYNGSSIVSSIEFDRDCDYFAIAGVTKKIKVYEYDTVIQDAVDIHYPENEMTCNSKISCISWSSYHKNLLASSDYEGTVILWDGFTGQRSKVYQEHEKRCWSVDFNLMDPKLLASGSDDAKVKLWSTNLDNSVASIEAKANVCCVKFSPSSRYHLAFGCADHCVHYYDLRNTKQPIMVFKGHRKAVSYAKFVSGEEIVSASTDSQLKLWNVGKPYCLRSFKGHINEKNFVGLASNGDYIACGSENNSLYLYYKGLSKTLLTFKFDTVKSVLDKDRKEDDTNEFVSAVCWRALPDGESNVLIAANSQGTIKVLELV
On to MKAAVDLKPTLTIIKTEKVDLELFPSPDMECADVPLLTPSSKEMMSQALKATFSGFTKEQQRLGIPKDPRQWTETHVRDWVMWAVNEFSLKGVDFQKFCMNGAALCALGKDCFLELAPDFVGDILWEHLEILQKEDVKPYQVNGVNPAYPESRYTSDYFISYGIEHAQCVPPSEFSEPSFITESYQTLHPISSEELLSLKYENDYPSVILRDPLQTDTLQNDYFAIKQEVVTPDNMCMGRTSRGKLGGQDSFESIESYDSCDRLTQSWSSQSSFNDLQRVPDFDSFDSEDYPAALPNHKPKGTFKDYVRDRADLNKDKPVIPAAALAGYTGSGPIQLWQFLLELLTDKSCQSFISWTGDGWEFKLSDPDEVARRWGKRKNKPKMNYEKLSRGLRYYYDKNIIHKTAGKRYVYRFVCDLQSLLGYTPEELHAMLDVKPDADE [S276D;S282D;Y283F], for which the “effect of a mutation on the interaction” value is recorded as “increasing interaction strength”.

In the case of MKAAVDLKPTLTIIKTEKVDLELFPSPDMECADVPLLTPSSKEMMSQALKATFSGFTKEQQRLGIPKDPRQWTETHVRDWVMWAVNEFSLKGVDFQKFCMNGAALCALGKDCFLELAPDFVGDILWEHLEILQKEDVKPYQVNGVNPAYPESRYTSDYFISYGIEHAQCVPPSEFSEPSFITESYQTLHPISSEELLSLKYENDYPSVILRDPLQTDTLQNDYFAIKQEVVTPDNMCMGRTSRGKLGGQDSFESIESYDSCDRLTQSWSSQSSFNDLQRVPSFDSFDSEDYPAALPNHKPKGTFKDYVRDRADLNKDKPVIPAAALAGYTGSGPIQLWQFLLELLTDKSCQSFISWTGDGWEFKLSDPDEVARRWGKRKNKPKMNYEKLSRGLRYYYDKNIIHKTAGKRYVYRFVCDLQSLLGYTPEELHAMLDVKPDADE [S276D;Y283F], the “effect of a mutation on the interaction” value is “increasing interaction strength”.

As for MKAAVDLKPTLTIIKTEKVDLELFPSPDMECADVPLLTPSSKEMMSQALKATFSGFTKEQQRLGIPKDPRQWTETHVRDWVMWAVNEFSLKGVDFQKFCMNGAALCALGKDCFLELAPDFVGDILWEHLEILQKEDVKPYQVNGVNPAYPESRYTSDYFISYGIEHAQCVPPSEFSEPSFITESYQTLHPISSEELLSLKYENDYPSVILRDPLQTDTLQNDYFAIKQEVVTPDNMCMGRTSRGKLGGQDSFESIESYDSCDRLTQSWSSQSSFNALQRVPDFDSFDSEDYPAALPNHKPKGTFKDYVRDRADLNKDKPVIPAAALAGYTGSGPIQLWQFLLELLTDKSCQSFISWTGDGWEFKLSDPDEVARRWGKRKNKPKMNYEKLSRGLRYYYDKNIIHKTAGKRYVYRFVCDLQSLLGYTPEELHAMLDVKPDADE [S276A;S282D;Y283F], the “effect of a mutation on the interaction” value is “increasing interaction strength”.

In another test the parent is B1. Particulars: with cop1_human COP1, Q8NHY2. This is another data set of the same source.
Target sequence in this assay (Q8NHY2 whole entry): as the sequence (Q8NHY2 whole entry) above
On to MKAAVDLKPTLTIIKTEKVDLELFPSPDMECADVPLLTPSSKEMMSQALKATFSGFTKEQQRLGIPKDPRQWTETHVRDWVMWAVNEFSLKGVDFQKFCMNGAALCALGKDCFLELAPDFVGDILWEHLEILQKEDVKPYQVNGVNPAYPESRYTSDYFISYGIEHAQCVPPSEFSEPSFITESYQTLHPISSEELLSLKYENDYPSVILRDPLQTDTLQNDYFAIKQEVVTPDNMCMGRTSRGKLGGQDSFESIESYDSCDRLTQSWSSQSSFNSLQRAASYDSFDSEDYPAALPNHKPKGTFKDYVRDRADLNKDKPVIPAAALAGYTGSGPIQLWQFLLELLTDKSCQSFISWTGDGWEFKLSDPDEVARRWGKRKNKPKMNYEKLSRGLRYYYDKNIIHKTAGKRYVYRFVCDLQSLLGYTPEELHAMLDVKPDADE [V280A;P281A], for which the “effect of a mutation on the interaction” value was “disrupting interaction strength”.

The variants in a further test derive from B2. Particulars: with cop1_human COP1, Q8NHY2.
Target sequence in this assay (Q8NHY2 whole entry): as the sequence (Q8NHY2 whole entry) above
With MNDFGIKNMDQVAPVANSYRGTLKRQPAFDTFDGSLFAVFPSLNEEQTLQEAATGLDSISHDSANCELPLLTPCSKAVMSQALKATFSGFKKEQRRLGIPKNPWLWSEQQVCQWLLWATNEFSLVNVNLQRFGMNGQMLCNLGKERFLELAPDFVGDILWEHLEQMIKENQEKTEDQYEENSHLTSVPHWINSNTLGFGTEQAPYGMQTQNYPKGGLLDSMCPASTPSVLSSEQEFQMFPKSRLSSVSVTYCSVSQDFPGSNLNLLTNNSGTPKDHDSPENGADSFESSDSLLQSWNSQSSLLDVQRVPSFESFEDDCSQSLCLNKPTMSFKDYIQERSDPVEQGKPVIPAAVLAGFTGSGPIQLWQFLLELLSDKSCQSFISWTGDGWEFKLADPDEVARRWGKRKNKPKMNYEKLSRGLRYYYDKNIIHKTSGKRYVYRFVCDLQNLLGFTPEELHAILGVQPDTED [V52A;P53A], the “effect of a mutation on the interaction” value was “decreasing interaction strength”.

Consider MNDFGIKNMDQVAPVANSYRGTLKRQPAFDTFDGSLFAVFPSLNEEQTLQEAATGLDSISHDSANCELPLLTPCSKAVMSQALKATFSGFKKEQRRLGIPKNPWLWSEQQVCQWLLWATNEFSLVNVNLQRFGMNGQMLCNLGKERFLELAPDFVGDILWEHLEQMIKENQEKTEDQYEENSHLTSVPHWINSNTLGFGTEQAPYGMQTQNYPKGGLLDSMCPASTPSVLSSEQEFQMFPKSRLSSVSVTYCSVSQDFPGSNLNLLTNNSGTPKDHDSPENGADSFESSDSLLQSWNSQSSLLDVQRAASFESFEDDCSQSLCLNKPTMSFKDYIQERSDPVEQGKPVIPAAVLAGFTGSGPIQLWQFLLELLSDKSCQSFISWTGDGWEFKLADPDEVARRWGKRKNKPKMNYEKLSRGLRYYYDKNIIHKTSGKRYVYRFVCDLQNLLGFTPEELHAILGVQPDTED [V52A;P53A;V308A;P309A], for which the “effect of a mutation on the interaction” value was “disrupting interaction strength”.

Consider MNDFGIKNMDQVAPVANSYRGTLKRQPAFDTFDGSLFAVFPSLNEEQTLQEVPTGLDSISHDSANCELPLLTPCSKAVMSQALKATFSGFKKEQRRLGIPKNPWLWSEQQVCQWLLWATNEFSLVNVNLQRFGMNGQMLCNLGKERFLELAPDFVGDILWEHLEQMIKENQEKTEDQYEENSHLTSVPHWINSNTLGFGTEQAPYGMQTQNYPKGGLLDSMCPASTPSVLSSEQEFQMFPKSRLSSVSVTYCSVSQDFPGSNLNLLTNNSGTPKDHDSPENGADSFESSDSLLQSWNSQSSLLDVQRAASFESFEDDCSQSLCLNKPTMSFKDYIQERSDPVEQGKPVIPAAVLAGFTGSGPIQLWQFLLELLSDKSCQSFISWTGDGWEFKLADPDEVARRWGKRKNKPKMNYEKLSRGLRYYYDKNIIHKTSGKRYVYRFVCDLQNLLGFTPEELHAILGVQPDTED [V308A;P309A], for which the “effect of a mutation on the interaction” value is “decreasing interaction strength”.
